The values that follow come from patent publication US20010044939A1, “Small subunit of plant acetolactate synthase” (priority 2000, published 2001).

pIC50: −log10 of the molar value.

For test [1], the target named is N. plumbaginifolia ALS large subunit from plasmid pMTDRALS (Nicotiana plumbaginifolia). The experiment in a line: cell-based or functional assay.
Test [2] addresses GST-LSU: A. thaliana ALS large subunit expressed as a glutathione-S-transferase fusion protein from plasmid pGEX-OCM2 (Arabidopsis thaliana) (UniProt P17597). The experiment in a line: cell-based or functional assay.
Test [3] has as its target free Arabidopsis thaliana ALS large subunit released from GST-LSU by thrombin (Arabidopsis thaliana) (UniProt P17597). The experiment in a line: cell-based or functional assay.
Test [4] relates to Nicotiana plumbaginifolia acetolactate synthase (ALS) holoenzyme: N. plumbaginifolia LSU (encoded by pMTDRALS; ALS10 cDNA SEQ ID NO:42, predicted polypeptide …). The experiment in a line: Inhibition of reconstituted plant ALS holoenzyme by herbicides (acetoin detection, microtiter plate). The format is biochemical. The following applies: holoenzyme (LSU + GST-SSU, thrombin cleaved); sodium pyruvate started (10 μL of 500 mM per well); pH 7.6; 37° C., 30 min; read-out: I50. The procedure: The plasmid pSSU Bbs/Bam was digested to completion with Bbs I and Xho I and the digestion products were separated by electrophoresis using a […] agarose gel and the 1.35 kbp Bbs I/Xho I fragment was recovered from the gel. Three hundred ng of this DNA was ligated with 1 μg of the plasmid pGEX-2TM that had been digested to completion with BamH I and Xho I and dephosphorylated as described above. The ligation reaction was diluted five fold with H2O and used to transform competent Max Efficiency E. coli DH5α as described above. […] This plasmid was designated pGEX-SSU.
The plasmid ALS10 that contains a full length cDNA copy of the Nicotiana plumbaginifolia ALS gene in the plasmid vector pBluescript was used as the source of the ALS coding region for pMTDRALS. The sequence of this cDNA is shown in SEQ ID NO:42. ALS10 was digested to completion with Xho I and Eco0109I, and the digestion products were separated by agarose gel electrophoresis. […] The plates were incubated overnight at 37° C. and plasmids isolated from kanamycin-resistant bacterial colonies were analyzed for the presence of the insert encoding the ALS large subunit by double digestion with Nde I and Xho I. One such plasmid, designated pMTDRALS was then transformed into E. coli BL21(DE3) using methods known to those skilled in the art. […]

On to “Trx-HIS/SSU: N. plumbaginifolia acetolactate synthase small subunit expressed as a thioredoxin fusion from plasmid pTrx-HIS/SSU (from UniProt P0AA25 1-109)”, for which, in test [1], the Specific Activity before thrombin addition (units/mg LSU), ALS enzyme assay is 5.5 units/mg LSU and the fold increase in specific activity (sample 4 against sample 3, before thrombin) worked out at 5 fold. In test [2], this molecule yielded a Specific Activity before thrombin addition (units/mg LSU), ALS enzyme assay of 0.9 units/mg LSU and a fold increase in specific activity (sample 2 against sample 1, before thrombin) of 3 fold.

For the molecule “bovine serum albumin (from UniProt P02769 25-607)”, the Specific Activity after thrombin addition (units/mg LSU), ALS enzyme assay in test [3] came out at 0.04 units/mg LSU; in test [1], 0.4 units/mg LSU. The Specific Activity before thrombin addition (units/mg LSU), ALS enzyme assay in test [1] came to 1.1 units/mg LSU; in test [2], 0.3 units/mg LSU.

Turning to `CCc1cnc(C2=NC(C)(C(C)C)C(=O)N2)c(C(=O)O)c1` (stereo not shown) [imezethapyr], the pIC50 in test [4] is 5.40.

“free N. plumbaginifolia ALS small subunit released from Trx-HIS/SSU by thrombin”: the Specific Activity after thrombin addition (units/mg LSU), ALS enzyme assay in test [3] came to 1.1 units/mg LSU; in test [1], 6.5 units/mg LSU. Further, the fold increase in specific activity (sample 2 against sample 1, after thrombin) in test [3] is > 20 fold.

As to `CC(C)C1(C)N=C(c2nc3ccccc3cc2C(=O)O)NC1=O` (stereo not shown) [imazequin], in test [4], the pIC50 is 6.10.
